Changes are numbered by the printed parent chain.
T1: Nectin-4 Mutant 2 (V90S/P92A/A93S/E95A/G96D) (Homo sapiens, UniProt Q96NY8, A93S/E95A/G96D/P92A/V90S)
T1 construct: expressed in transfected cells; host or cells: HEK293T
T1 sequence (Q96NY8 32-510 V90S/P92A/A93S/E95A/G96D): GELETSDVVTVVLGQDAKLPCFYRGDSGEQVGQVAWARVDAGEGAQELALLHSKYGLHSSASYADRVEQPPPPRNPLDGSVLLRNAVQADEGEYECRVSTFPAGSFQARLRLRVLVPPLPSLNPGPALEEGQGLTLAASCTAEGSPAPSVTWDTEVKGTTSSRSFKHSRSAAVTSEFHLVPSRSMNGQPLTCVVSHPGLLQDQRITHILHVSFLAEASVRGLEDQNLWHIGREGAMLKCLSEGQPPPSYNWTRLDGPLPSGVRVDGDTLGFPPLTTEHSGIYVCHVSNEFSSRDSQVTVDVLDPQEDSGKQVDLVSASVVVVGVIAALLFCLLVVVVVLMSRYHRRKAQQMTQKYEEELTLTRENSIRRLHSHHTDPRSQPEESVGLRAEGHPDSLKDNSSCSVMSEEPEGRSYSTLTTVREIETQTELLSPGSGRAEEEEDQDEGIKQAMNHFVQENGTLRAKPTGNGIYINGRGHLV

T2: Nectin-4 Mutant 3 (A76S/Q77R/E78A/S91N) (Homo sapiens, UniProt Q96NY8, A76S/E78A/Q77R/S91N)
T2 construct: expressed in transfected cells; host or cells: HEK293T
T2 sequence (Q96NY8 32-510 A76S/Q77R/E78A/S91N): T1 sequence (Q96NY8 32-510 V90S/P92A/A93S/E95A/G96D) with A45S, Q46R, E47A, S59V, S60N, A61P, S62A, A64E, D65G

T3: Nectin-4 Mutant 4 (A72P/G73N/G75S) (Homo sapiens, UniProt Q96NY8, A72P/G73N/G75S)
T3 construct: expressed in transfected cells; host or cells: HEK293T
T3 sequence (Q96NY8 32-510 A72P/G73N/G75S): T1 sequence (Q96NY8 32-510 V90S/P92A/A93S/E95A/G96D) with A41P, G42N, G44S, S59V, A61P, S62A, A64E, D65G

T4: Nectin-4 Mutant 7 (S195A/K197T/S199A) (Homo sapiens, UniProt Q96NY8, K197T/S195A/S199A)
T4 construct: expressed in transfected cells; host or cells: HEK293T
T4 sequence (Q96NY8 32-510 S195A/K197T/S199A): T1 sequence (Q96NY8 32-510 V90S/P92A/A93S/E95A/G96D) with S59V, A61P, S62A, A64E, D65G, S164A, K166T, S168A

B1: 5E7 (antibody, V domains shown)
VH: QVQLQQPGAELVKPGASVKLSCKASGYIFTSYWMHWVKQRPGQGLEWIGEIDPSDSYTNYNQKFKGKATLTLDKSSSTTYMQLSSLTSEDSAVYYCVRGYGNYGDYWGQGTTLTVSS
VL: DVVMTQAAFSNPVTLGTSASISCRSSKSLLHSNGITYLYWYLQKPGQSPQLLIYQMSNLASGVPDRFSSSGSGTDFTLRISRVEAEDVGVYYCAQNLELPWTFGGGTKLEIK
B2: 10B12: anti-Nectin-4 antibody, VH SEQ ID NO: 24, VL SEQ ID NO: 25, binds junction of domain C1 and V (antibody, listed as Mus musculus, V domains shown)
VH: B1 VH with I28T, L72V, T79A
VL: B1 VL with V2I
B3: N41 (antibody, V domains shown)
VH: QVQLKQSGPGLVQPSQSLSITCTVSGFSLTNYGVHWVRQSPGKGLEWLGVIWSGGSTDYNAAFISRLSISKDTSKSQVFFKMNSLQADDTAIYYCARELIHAMDNWGQGTSVTVSS
VL: DIQMTQSPASLSVSVGETVTITCRASENIYSNLAWYQQKQGNSPQLLVFAATNLADGVPSRFSGSGSGTQYSLKINSLQSEDFGTYYCQHFWGTPTFGGGTKLEIK

Assays:
Assay in all cases: Binding to cell surface expressed Nectin-4 point mutant
Details in all cases: HEK-293T
[1] = biological target: T1, Nectin-4 Mutant 2 (V90S/P92A/A93S/E95A/G96D)
Source text: (§1) Combined with the published structures of the Nectin-4 domains, Nectin-4 mutations at surface exposed amino acids residues were designed. Nectin-4 domain structure was modelled based on Protein Data Bank reference: 4FRW (domains V et C1). Human Nectin-4 used was NCBI Reference Sequence: NP_112178.2, mouse Nectin-4 used was NCBI Reference Sequence: AAL79833.1, cynomolgus Nectin-4 used was NCBI Reference Sequence: XP_005541277.1, rat Nectin-4 used was NCBI Reference Sequence: NP_001102546.1. The cells expressing the Nectin-4 mutants are then be used for testing anti-Nectin-4 antibodies for loss of binding to different Nectin-4 mutants to identify antibodies that bind to the same site on Nectin-4. […] FIGS. 12A and 12B show a molecular model of the human Nectin-4 protein, indicating the position of substituted residues in mutants 7 (12A) and in mutants 7bis (12B); these mutants are in the C1 domain identify two sites at the junction of domain C1 and V domain that are on opposing faces of the Nectin-4 protein.
(§2) Nectin-4 mutants were generated by PCR. The sequences amplified were run on agarose gel and purified using the Macherey Nagel PCR Clean-Up Gel Extraction kit. The purified PCR products generated for each mutant were then ligated into an expression vector, with the ClonTech InFusion system. The vectors containing the mutated sequences were prepared as Miniprep and sequenced. After sequencing, the vectors containing the mutated sequences were prepared as Midiprep using the Promega PureYield™ Plasmid Midiprep System. HEK293T cells were grown in DMEM medium (Invitrogen), transfected with vectors using Invitrogen's Lipofectamine 2000 and incubated at 37° C. in a CO2 incubator for 48 hours prior to testing for transgene expression. The targeted amino acid mutations are shown in Table 2 below, listing the residue present in wild-type Nectin-4/position of residue/residue present in mutant Nectin-4, with position reference being to the Nectin-4 protein with leader peptide shown in SEQ ID NO: 1.

[2] = biological target: T2, Nectin-4 Mutant 3 (A76S/Q77R/E78A/S91N)
Source text: as §1, §2

[3] = biological target: T3, Nectin-4 Mutant 4 (A72P/G73N/G75S)
Source text: as §1, §2

[4] = biological target: T4, Nectin-4 Mutant 7 (S195A/K197T/S199A)
Source text: as §1, §2

Molecule	association with Nectin-4 Mutant 2 [1]	association with Nectin-4 Mutant 3 [2]	association with Nectin-4 Mutant 4 [3]	association with Nectin-4 Mutant 7 [4]
B1	+	+	+	−
B2	+	+	+	−
B3	+	+	+	+

From US20240325557A1, “TREATMENT OF CANCER” (INNATE PHARMA, priority 2020, published 2024)
